Tests used:
[1] = target: StrepII-Avi-TEV-Menin T349M (recombinant mutant human Menin) (UniProt O00255); assay: fluorescence polarization
[2] = target: StrepII-Avi-TEV-Menin (wild-type human Menin, recombinant, E. coli) (UniProt O00255); assay: fluorescence polarization
[3] = target: StrepII-Avi-TEV-Menin M327I (recombinant mutant human Menin) (UniProt O00255); assay: fluorescence polarization
[4] = target: WT (UniProt O00255); assay: fluorescence polarization competition
[5] = target: T349M (UniProt O00255); assay: fluorescence polarization competition
[6] = target: M327I (UniProt O00255); assay: fluorescence polarization competition

Kd [1]	Kd [2]	Kd [3]	IC50 [4]	Ki [4]	IC50 [5]	Ki [5]	IC50 [6]	Ki [6]	Substance
3.7 nM	1.78 nM	2.56 nM							N-terminally FITC-labelled MLL2(15-48) peptide
			26.1 nM	9.17 nM	101 nM	51.4 nM	20.3 nM	7.78 nM	MLL1 Peptide

— patent US20260185163A1, “MEN1 MUTATIONS AND USES THEREOF” (DANA-FARBER CANCER INSTITUTE, INC., priority 2022, published 2026)
